The data set is described as follows: yeast display, Sf9 membrane polyspecificity reagent, FACS + sequencing; frameworks hold sequencing errors. The procedure, abridged: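 Sorting gates, low and high (top ~1%), were placed on anti-HA fluorescence to track expression and on streptavidin fluorescence to track reagent binding. A clone's polyreactivity label is taken from the gate it came out of. The reagent was 10% biotinylated, detergent-solubilized Sf9 membrane, applied for 1 hour at 4 °C to galactose-induced yeast display cells.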
In the case of “QVQLVESGGGLVQAGGSLRLSCAASGIIFGSNTMGWYRQAPGKERELVAAITSSDGSTHYADSVKGRFTISRDNAKNTVYLQMKSLKPEDTAVYYCAARKVTYGHSYGYDYWGQGTQVTLSS”, the “polyreactivity (PSR sort gate)” value is reported as “low polyreactivity”.
For “QVQLVESGGGLVQAGGSLRLSCAASGIIFGSYAIGWYRQAPGKERELVAGISRRGDSTYYADSVKGRFTISRDNAKNTVYLQMNSLKPEDTAVYYCAARWFRRSTYLYYYWGQGTQVTVSS” the value was “high polyreactivity”.
As for “QVQLVESGGGLVQAGGSLRLSCAASGIIFGSYAMGWSRQAPGKERELVAAISYSGSTFYADSVKGRFTISRDNAKNTVYLQMNSLKPEDTAVYYCNADRYAKWYRKYRPNDYWGQGTQVTVSS”, the entry is “high polyreactivity”.
As for “QVQLVESGGGLVQAGGSLRLSCAASGIIFGTNAMGWSRQAPGKERELVAAITWSGGTYYADSVKGRFTISRDNAKNTVYLQMNSLKPEDTAVYYCAADGSGYYDWYYYWGQGTQVTVSS”, the entry is “low polyreactivity”; as for “QVQLVESGGGLVQAGGSLRLSCAASGIIFGTNAMGWYRQAPGKERELVAAIRVTGGSTYYADSVKGRFTISRDNAKNTVYLQMNSLKPEDTAVYYCARDSWFVVDMDYWGQGTQVTVSS”, “low polyreactivity”.
Regarding “QVQLVESGGGLVQAGGSLRLSCAASGIIFGTYAMGWYRQAPGKERELVAAINWSGGSTYYADSVKGRFTISRDNAKNTVYLQMNSLKPEDTAVYYCAADGNEYDYWGQGTQVTVSS”, the “polyreactivity (PSR sort gate)” value is “low polyreactivity”.
As for “QVQLVESGGGLVQAGGSLRLSCAASGIIFGVYAMGWYRQAPGKERELVAAIDGNGSSTYYADSVKGRFISSRDNAKTTVYLQMNSLKPEDTAVYYCAADLVWVSTSYYYWGQGTQVTVSS”, the entry is “low polyreactivity”; as for “QVQLVESGGGLVQAGGSLRLSCAASGIIFGVYAMGWYRQAPGKERELVADISSGDSTNYADSVKGRFTISRANAKNTVYLQMNSLKPEDTAVYYCAAEFGRMYWRYGYWGQGTQVTVSS”, “low polyreactivity”.
As for “QVQLVESGGGLVQAGGSLRLSCAASGIIFGYNVMGWYRQAPGKERELVAAIRYSGGSKYYADSVKGRFTISRDNAKNTVYLQMNSLKPEDTAVYYCAKAYRAAPRESYDYWGQGTQVTVSS”, the entry is “high polyreactivity”; as for “QVQLVESGGGLVQAGGSLRLSCAASGIIFGYYAMAWYRQAPGTERELVAAITSGASTDYADSVKGRFTISRDNAKNNVYLQMNSLKPEDTAVYYCNADTSASTYTFPFDYWGQGTQVTVSS”, “low polyreactivity”; as for “QVQLVESGGGLVQAGGSLRLSCAASGIIFGYYAMGRYRQAPGKERELVAAITWSGGSTYYADSVKGRFTISRDNAKNTVYLQMNSLKPEDTAVYYCAAGDPTLLNESFDYWGQGTQVTVSS”, “low polyreactivity”.
Consider “QVQLVESGGGLVQAGGSLRLSCAASGIIFGYYAMGWKRQAPGKERELVAAIDWTGGNTYYADSVKGRFTSSRDNAKNTVYLQMNSLKPEDTAVYYWAADSNSQEDYWGQGTQVTVSS”, for which the “polyreactivity (PSR sort gate)” value was “low polyreactivity”.
For “QVQLVESGGGLVQAGGSLRLSCAASGIIFGYYAMGWYRQAPGKERELVAAISRSGGRTYYADSVKGRFTISRDNAKNTVYLQMNSLKPEDTAVYYCATVTNSKRGFDYWGQGTQVTVLS” the value was “high polyreactivity”.
As for “QVQLVESGGGLVQAGGSLRLSCAASGIIFGYYSMGWYRQAPGKERDLVAAITWSGGSTYYADSVKGRFTISRDYAKNTVYLQMNSLKPEDTAVYYCNALGWYGDYDYWGQGTQVTVSS”, the entry is “low polyreactivity”; as for “QVQLVESGGGLVQAGGSLRLSCAASGIIFHFNDMGWTTQAPGKERELVAAISRRGSTYYADSVTGRFTISRDNAKNSVYLQMNSLKPEDTAVYYCAKYRGRVKTYNGGYDYWGQGTQVSVSS”, “low polyreactivity”.
For “QVQLVESGGGLVQAGGSLRLSCAASGIIFHFNDMGWYRLAPGKERELVAAITSGGSTNYADSVKGRFTISRDNAKKTVYLQMNSLKPEDTADYYCAARRGLRLFAYRHGYWGQGTQVTVSS” the value was “low polyreactivity”; for “QVQLVESGGGLVQAGGSLRLSCAASGIIFHFNDMGWYRQAPGKERELVAAIDSTGSTNYADSVKGRFTISRDNAKNTVNLQMNSLKPEDTAVYYCAADWTLDPSYGYYADDYWGQGTQVTVSS”, “low polyreactivity”; for “QVQLVESGGGLVQAGGSLRLSCAASGIIFIIYTMGWYRQSPGKERELVAAISWSGGSTYYADSVKGRFTISRDNAKNTVYLQMNSLKPEDTAVYYCAADVANWYGGGNSDYDHEYWGQGPQVTVSS”, “low polyreactivity”.
For “QVQLVESGGGLVQAGGSLRLSCAASGIIFISYDMGWSRQAPGKERELVARINWDGGSTYYADSVKGRFTISRDNAKNTVYLQMNSLKPEDTAVYYCAAGFVGTNYPVLGFSYEYWGQGTQVTVSS”, the “polyreactivity (PSR sort gate)” value is given as “low polyreactivity”.
As for “QVQLVESGGGLVQAGGSLRLSCAASGIIFITYAMGWYRQAPGKERELVAAITNSGGGTYYADSVKGRFTISRDNAKNTVYLQMNILKPEATAVYYCAARKTAYGYRYDYWGQGTQVTVSS”, the entry is “high polyreactivity”; as for “QVQLVESGGGLVQAGGSLRLSCAASGIIFIYNAMGWYRQAPGKERELVGAIRRSGSPSYADSVKGRFTISRDNAKNTVYLQMNSLKPEDTAVYYCAADTSTWFGAYYLRDPYDYWGQGTQVTVSS”, “low polyreactivity”; as for “QVQLVESGGGLVQAGGSLRLSCAASGIIFIYYAMGWYRQAPGKERELVAAISQSGVNTYYADSVKGRFTISRDNAKNTVYLQMNSLKPEDTAVYYCAADRYGHFGYWGQGTQVTVSS”, “high polyreactivity”.
As for “QVQLVESGGGLVQAGGSLRLSCAASGIIFKGYAMGWYRQAPGKERELVAGITRNGGGTYYADSVKGRFTISRDNAKNTVYLQMNSLKPEDTAVYYCAARWDYSYRYRLYYWGQGTQVTVSS”, the entry is “high polyreactivity”; as for “QVQLVESGGGLVQAGGSLRLSCAASGIIFKIYAMGWYRQAPGKERELVAAITRSGTRTYYADSVKGRFTISRDNAKNTVYLQMNSLKPEDTAVYYCNAYTTLAYDLDYWGQGTQVTVSS”, “high polyreactivity”.
For “QVQLVESGGGLVQAGGSLRLSCAASGIIFKPYAMGWYRPAPGKERQLVAAITVNGGTTYYADSVKGRFTISRDNAKKTVNVQMNSLKPEDPAFYYCNRGRPGGPSWYHYDYWGQGTEVTVSS” the value was “high polyreactivity”.
As for “QVQLVESGGGLVQAGGSLRLSCAASGIIFKSYAKGWYRQAPGKARELVAAMSWIGGSTYYADSVKGRFTISRDNAKHTVYFQMTSLKPEATAVYYCNARQYRRSRMDYWGQGTQVTVSS”, the “polyreactivity (PSR sort gate)” value is recorded as “high polyreactivity”.
For “QVQLVESGGGLVQAGGSLRLSCAASGIIFKSYAMGWYRQAPGKERELVAAISSGGSTYYVDSVKGRFTISRDNAKNTVYLQMNSLKPEDTAVYYCNARYKRYSYDYWGHGTQVTVSS” the value was “high polyreactivity”; for “QVQLVESGGGLVQAGGSLRLSCAASGIIFKSYAMGWYRQAPGKERELVAAITKRGGSTYYADSVKGRFTISRDNAKNTVYLQMNSLKPEDSAVYYCAAFAVPYDYWGQGTQVTVSS”, “high polyreactivity”.
For “QVQLVESGGGLVQAGGSLRLSCAASGIIFKVNAMGWYRQAPGKERELVAAISRRGGITYYADSVKGRFTISRDNAKNTVYLQMNSLKPEDSAVYYCAAAYSDYRFSTRYPYNYWGQGTQVTVSS” the value was “high polyreactivity”; for “QVQLVESGGGLVQAGGSLRLSCAASGIIFKYYAMGWYRQAPGKERELVAAISRSSGSTYYADSVKGRFTISRDNAKNTVYLQMNSLKPEDTAVYYCAASGWPQKYDYWGQGTQVTVSS”, “high polyreactivity”.
Take “QVQLVESGGGLVQAGGSLRLSCAASGIIFKYYAMGWYRQAPGKERELVAAISSRSGRTYYADSVKGRFTISRDNAKNTVYLQMNSLKPEDTAVYYCNVQVQRSYPYGYWGQGTQVTVSS”: the “polyreactivity (PSR sort gate)” value is given as “high polyreactivity”.
For “QVQLVESGGGLVQAGGSLRLSCAASGIIFLDYVMGWYRQAPGKERELVAAINSGGSTYYADSVKGRFTISRDNAKNTVYLQMNSLKPEDTAVYYCAADDYYKFDYWGQGTQVSVSS” the value was “low polyreactivity”.
As for “QVQLVESGGGLVQAGGSLRLSCAASGIIFLDYVMGWYRQAPGKERELVAAISRSGGTTYYADSVKGRFTISRDNAKNTVYLQMNSLKPEDTAVYYCAVRSYRDTRFYYWGQGTKVTVSS”, the entry is “high polyreactivity”; as for “QVQLVESGGGLVQAGGSLRLSCAASGIIFLENAMGWFRQAPGKESELVAGINGGGRTDYADSVKGRFTISRDNAKHTVYLQMNSLKPEDTAVYYCAAESSWYSPDVNYCGQGTQVTVSS”, “low polyreactivity”; as for “QVQLVESGGGLVQAGGSLRLSCAASGIIFLFYAMGWYRQAPGKERELVASITWSGGSTYYADSVKGRFTISRDNAKNTVYLQMNSLKPEDTAVYYCAASVKIISYLVHSEFLGGELDYWGQGTQVTVSS”, “low polyreactivity”.
For “QVQLVESGGGLVQAGGSLRLSCAASGIIFLGNAMGWYRQAPGKERELVAAITASGTSTYYADSVKGRFTISRDNAKNTVYLQMNSLKPEDTAVYYCAAQSTWYDYYYWGQGTQVTVSS” the value was “low polyreactivity”.
Consider “QVQLVESGGGLVQAGGSLRLSCAASGIIFLGYVMGWYRQAPGKERELVAAISSSGGRTYYADSVKGRFTISRDNAKNTVYLQMNSLKPEDTAVYYCARYSYRGTNVRYDYWGQGTQVTVSS”, for which the “polyreactivity (PSR sort gate)” value is given as “high polyreactivity”.
As for “QVQLVESGGGLVQAGGSLRLSCAASGIIFLLYAMGWYRQAPGKERELVAAITNGGRTNYADSVKGRFTISRDNAKNTVYLQMNSLKPEDTAVYYCNAVLSVPDYTLFDYWGQGTQVTVSS”, the entry is “low polyreactivity”; as for “QVQLVESGGGLVQAGGSLRLSCAASGIIFLNYDIGWYRPAPGKERELVAAITTSGASTYYADSVKGRFTISRDNAKNTVYLQMNSLKREDTAVYYCAAVFRHARYRYDYWGQGTQVTVSS”, “high polyreactivity”; as for “QVQLVESGGGLVQAGGSLRLSCAASGIIFLSYAMGWYRQAPGKERELVATITRSGGSTYYADSVEGRFTISRDNAKNTVYLQMNSLKPEDTAVYYCARYWRTSGVRMDYWGQGTQVTVSS”, “high polyreactivity”.
Consider “QVQLVESGGGLVQAGGSLRLSCAASGIIFNDYAMGWYRQAPGKERELVAAISWSGGRTYYADSVKGRFTISRDNAKNTVYLQMNSLKPEDTAVYYCNARARQYSAFPVVERNYWGQGTQVTVSS”, for which the “polyreactivity (PSR sort gate)” value is reported as “high polyreactivity”.
